T1: Mouse Id3: Histidine (mouse, UniProt P41133 1-119)
T1 construct: Fusion protein made in E. coli from vector pGW07; also called m-Id3: His; Mouse Id3 (coated wells); not shown: His tag
T1 sequence: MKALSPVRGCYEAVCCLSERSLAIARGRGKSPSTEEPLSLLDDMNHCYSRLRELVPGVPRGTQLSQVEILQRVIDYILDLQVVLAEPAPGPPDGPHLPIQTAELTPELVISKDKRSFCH

T2: Human Id1: Histidine (human, UniProt P41134 1-155, limits assumed)
T2 construct: Fusion protein made in E. coli from vector pGW07; also called h-Id1: his; not shown: His tag
T2 sequence (looked up): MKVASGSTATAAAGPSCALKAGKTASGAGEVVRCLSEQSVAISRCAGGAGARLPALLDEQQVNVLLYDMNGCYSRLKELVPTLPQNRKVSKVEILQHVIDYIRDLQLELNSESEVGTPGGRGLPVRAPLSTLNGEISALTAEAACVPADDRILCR

T3: Mouse Id1: Histidine (mouse, UniProt P20067-2 1-148, limits assumed)
T3 construct: Fusion protein made in E. coli from vector pGW07; also called m-Id1-His; not shown: His tag
T3 sequence (looked up): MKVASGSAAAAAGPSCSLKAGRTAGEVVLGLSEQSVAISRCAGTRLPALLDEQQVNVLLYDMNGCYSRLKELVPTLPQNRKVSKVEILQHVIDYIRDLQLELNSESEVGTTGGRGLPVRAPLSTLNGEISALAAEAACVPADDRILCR

T4: Human Id2: Histidine (human, UniProt Q02363 1-134, limits assumed)
T4 construct: Fusion protein made in E. coli from vector pGW07; also called h-Id2: His; not shown: His tag
T4 sequence (looked up): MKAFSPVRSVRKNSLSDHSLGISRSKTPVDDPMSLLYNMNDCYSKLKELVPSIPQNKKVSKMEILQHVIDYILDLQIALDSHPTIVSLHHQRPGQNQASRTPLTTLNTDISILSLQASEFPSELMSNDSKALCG

T5: Human Id3: Histidine (human, UniProt Q02535 1-119 at identity 1.00))
T5 construct: Fusion protein made in E. coli from vector pGW07; also called h-Id3: His; Human Id3 (coated wells); not shown: His tag
T5 chain: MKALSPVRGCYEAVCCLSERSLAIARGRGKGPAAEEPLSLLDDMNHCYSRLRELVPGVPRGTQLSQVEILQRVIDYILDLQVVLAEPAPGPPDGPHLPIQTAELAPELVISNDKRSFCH

T6: Mouse Id2: Histidine (mouse, UniProt P41136 1-134, limits assumed)
T6 construct: Fusion protein made in E. coli from vector pGW07; also called m-Id2: His; not shown: His tag
T6 sequence (looked up): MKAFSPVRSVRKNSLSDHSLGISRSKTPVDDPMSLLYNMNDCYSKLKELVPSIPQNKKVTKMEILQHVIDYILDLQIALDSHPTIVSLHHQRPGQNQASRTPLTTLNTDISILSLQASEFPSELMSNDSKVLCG

T7: Human Id4: Histidine (human, UniProt P47928 1-161, limits assumed)
T7 construct: Fusion protein made in E. coli from vector pGW07; also called h-Id4: His; not shown: His tag
T7 sequence (looked up): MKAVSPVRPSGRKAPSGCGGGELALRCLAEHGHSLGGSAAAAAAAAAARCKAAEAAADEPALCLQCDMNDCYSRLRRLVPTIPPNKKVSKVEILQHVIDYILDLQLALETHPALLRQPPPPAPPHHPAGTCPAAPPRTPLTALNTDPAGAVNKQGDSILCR

T8: Mouse Id4: Histidine (mouse, UniProt P41139 1-161, limits assumed)
T8 construct: Fusion protein made in E. coli from vector pGW07; also called m-Id4: His; not shown: His tag
T8 sequence (looked up): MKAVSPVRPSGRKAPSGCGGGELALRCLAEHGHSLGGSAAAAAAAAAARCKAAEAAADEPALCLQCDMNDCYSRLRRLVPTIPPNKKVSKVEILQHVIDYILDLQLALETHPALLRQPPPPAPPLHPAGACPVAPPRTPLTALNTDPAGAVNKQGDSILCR

B1: rabbit monoclonal anti-mouse/human Id3, clone #BCH-4/#6-1 (antibody, V domains shown)
VH: QSVEESGGRLVTPGTPLTLTCTASGFSLSNVYIHWVRQAPGKGLEWIGYISDGDTARYATWAKGRFTISKTSSTTVNLKMTSLTTEDTATYFCARQGFNIWGPGTLVTVSL
VL: AVLTQTPSPVSAAVGGTVSISCQSSQSVWNNNWLSWFQQKPGQPPKLLIYETSKLESGVPSRFKGSGSGTQFTLTISDVQCDDAATYYCLGGYWTTSDNNVFGGGTEVVVK
notes: Rabbit IgG from a rabbit hybridoma; also called m/h Id3 MoAb 6-1
B2: rabbit monoclonal anti-human Id3, clone #BCH-4/#3-3 (antibody, V domains shown)
VH: QSVEESGGRLVTPGTPLTLTCTVSGIDLSSYAMSWVRQAPGKGLEWIGVIFPSNNVYYASWAKGRFTISKTSTTVDLKITSPTTEDTATYFCASMGAFDSWGPGTLVTVSS
VL: QVLTQTPSPVSAAVGGTVTINCQASQSIYNDNDLAWFQQKPGQPPKLLIYDASTLTSGVPSRFKGSGSGTQFTLTISDLDCDDAATYYCAARYSGNIYGFGGGTEVVVK
notes: Rabbit IgG from a rabbit hybridoma; also called h Id3 MoAb 3-3

Tests used:
Mouse Id3: Histidine [1] = target: T1, Mouse Id3: Histidine; test: ELISA, positive control (stated to be BCH-4/6-1) 0.25 µg/ml
Procedure: (§1) 1. Dispense 100 μL of antibody diluent, diluted rabbit monoclonal human Id3, and mouse/human Id3 hybridoma supernatants into appropriate wells. […] 2. Incubate at room temperature with mechanical shaking at 750 rpm for 90 minutes. [0165] 3. Remove the incubation mixture by flicking plate content into an appropriate waste container followed by rinsing the wells 5 times with distilled water. [0166] 4. Strike the wells sharply onto absorbent paper or paper towels to remove all residual water droplets. [0167] 5. Dispense 100 μL of 1:50,000 Goat Anti-Rabbit IgG-HRP Conjugate Reagent into each well. Gently mix for 5 seconds. [0168] 6. Incubate at room temperature with mechanical shaking at 750 rpm for 90 minutes. [0169] 7. Repeat procedures 3 and 4. [0170] 8. Dispense 100 μL of TMB Reagent into each well. Gently mix for 5 seconds. [0171] 9. Incubate at room temperature with mechanical shaking at 750 rpm for 20 minutes. […] 10. Add 100 μL of Stop Solution (1N HCl) into each well. [0173] 11. Gently mix for 10 seconds to ensure a complete mixing. [0174] 12. Read optical density at A450 nm.
(§2) The materials and method are the same as those described in Example 9 except the following.
(§3) Rabbit monoclonal anti-mouse Id3, hybridoma supernatant was used as the test antibody. Protein G purified, rabbit monoclonal anti-mouse/human Id3 antibody, BCH-4/6-1, 0.92 mg/ml in 0.25% BSA was used as positive controls.

Human Id1: Histidine [2] = target: T2, Human Id1: Histidine; test: as above
Procedure: as §1, §2, §3

Mouse Id1: Histidine [3] = target: T3, Mouse Id1: Histidine; test: as above
Procedure: as §1, §2, §3

Mouse Id3: Histidine [4] = target: T1, Mouse Id3: Histidine; test: ELISA, Ab 0.100 µg/ml
Human Id2: Histidine = target: T4, Human Id2: Histidine; test: ELISA, Ab 0.100 µg/ml
Human Id1: Histidine [5] = target: T2, Human Id1: Histidine; test: ELISA, Ab 0.100 µg/ml
Mouse Id1: Histidine [6] = target: T3, Mouse Id1: Histidine; test: ELISA, Ab 0.100 µg/ml
Human Id3: Histidine = target: T5, Human Id3: Histidine; test: ELISA, Ab 0.100 µg/ml
Mouse Id2: Histidine [7] = target: T6, Mouse Id2: Histidine; test: ELISA, Ab 0.100 µg/ml
Human Id4: Histidine = target: T7, Human Id4: Histidine; test: ELISA on coated wells, summary
Mouse Id4: Histidine = target: T8, Mouse Id4: Histidine; test: ELISA on coated wells, summary
Mouse Id2: Histidine [8] = target: T6, Mouse Id2: Histidine; test: ELISA on coated wells, summary

Binder | A450 (Mouse Id3: Histidine [1]) [A450] | A450 (Human Id1: Histidine [2]) [A450] | A450 (Mouse Id1: Histidine [3]) [A450] | A450 (Mouse Id3: Histidine [4]) [A450] | A450 (Human Id2: Histidine) [A450] | A450 (Human Id1: Histidine [5]) [A450] | A450 (Mouse Id1: Histidine [6]) [A450] | A450 (Human Id3: Histidine) [A450] | A450 (Mouse Id2: Histidine [7]) [A450] | Cross-reactivity (%) (Human Id4: Histidine) | Cross-reactivity (%) (Mouse Id4: Histidine) | Cross-reactivity (%) (Mouse Id2: Histidine [8])
B1 | 2.81 | 2.12 | 1.96 | 2.42 | 0.058 | 0.083 | 0.085 | 1.98 | 0.067 |  |  | 
B2 |  |  |  |  |  |  |  |  |  | < 1 | < 1 | < 1
